Laboratory results: publication PMC9628839, “Structure Based Protein Engineering of Aldehyde Dehydrogenase from Azospirillum brasilense to Enhance Enzyme Activity against Unnatural 3-Hydroxypropionaldehyde” (Journal of Microbiology and Biotechnology, 2021)

B1: AbKGSADH (Azospirillum brasilense; P444F) (protein)
chain: ANVTYTDTQLLIDGEWVDAASGKTIDVVNPATGKPIGRVAHAGIADLDRALAAAQSGFEAWRKVPAHERAATMRKAAALVRERADAIAQLMTQEQGKPLTEARVEVLSAADIIEWFADEGRRVYGRIVPPRNLGAQQTVVKEPVGPVAAFTPWNFPVNQVVRKLSAALATGCSFLVKAPEETPASPAALLRAFVDAGVPAGVIGLVYGDPAEISSYLIPHPVIRKVTFTGSTPVGKQLASLAGLHMKRATMELGGHAPVIVAEDADVALAVKAAGGAKFRNAGQVCISPTRFLVHNSIRDEFTRALVKHAEGLKVGNGLEEGTTLGALANPRRLTAMASVIDNARKVGASIETGGERIGSEGNFFAPTVIANVPLDADVFNNEPFGPVAAIRGFDKLEEAIAEANRLPFGLAGYAFTRSFANVHLLTQRLEVGMLWINQPATFWPEMPFGGVKDSGYGSEGGPEALEPYLVTKSVTVMAV
B2: AbKGSADH (Azospirillum brasilense; R281Q) (protein)
chain: ANVTYTDTQLLIDGEWVDAASGKTIDVVNPATGKPIGRVAHAGIADLDRALAAAQSGFEAWRKVPAHERAATMRKAAALVRERADAIAQLMTQEQGKPLTEARVEVLSAADIIEWFADEGRRVYGRIVPPRNLGAQQTVVKEPVGPVAAFTPWNFPVNQVVRKLSAALATGCSFLVKAPEETPASPAALLRAFVDAGVPAGVIGLVYGDPAEISSYLIPHPVIRKVTFTGSTPVGKQLASLAGLHMKRATMELGGHAPVIVAEDADVALAVKAAGGAKFQNAGQVCISPTRFLVHNSIRDEFTRALVKHAEGLKVGNGLEEGTTLGALANPRRLTAMASVIDNARKVGASIETGGERIGSEGNFFAPTVIANVPLDADVFNNEPFGPVAAIRGFDKLEEAIAEANRLPFGLAGYAFTRSFANVHLLTQRLEVGMLWINQPATPWPEMPFGGVKDSGYGSEGGPEALEPYLVTKSVTVMAV
B3: AbKGSADH (Azospirillum brasilense; P444L) (protein)
chain: ANVTYTDTQLLIDGEWVDAASGKTIDVVNPATGKPIGRVAHAGIADLDRALAAAQSGFEAWRKVPAHERAATMRKAAALVRERADAIAQLMTQEQGKPLTEARVEVLSAADIIEWFADEGRRVYGRIVPPRNLGAQQTVVKEPVGPVAAFTPWNFPVNQVVRKLSAALATGCSFLVKAPEETPASPAALLRAFVDAGVPAGVIGLVYGDPAEISSYLIPHPVIRKVTFTGSTPVGKQLASLAGLHMKRATMELGGHAPVIVAEDADVALAVKAAGGAKFRNAGQVCISPTRFLVHNSIRDEFTRALVKHAEGLKVGNGLEEGTTLGALANPRRLTAMASVIDNARKVGASIETGGERIGSEGNFFAPTVIANVPLDADVFNNEPFGPVAAIRGFDKLEEAIAEANRLPFGLAGYAFTRSFANVHLLTQRLEVGMLWINQPATLWPEMPFGGVKDSGYGSEGGPEALEPYLVTKSVTVMAV
B4: AbKGSADH (Azospirillum brasilense; P444G) (protein)
chain: ANVTYTDTQLLIDGEWVDAASGKTIDVVNPATGKPIGRVAHAGIADLDRALAAAQSGFEAWRKVPAHERAATMRKAAALVRERADAIAQLMTQEQGKPLTEARVEVLSAADIIEWFADEGRRVYGRIVPPRNLGAQQTVVKEPVGPVAAFTPWNFPVNQVVRKLSAALATGCSFLVKAPEETPASPAALLRAFVDAGVPAGVIGLVYGDPAEISSYLIPHPVIRKVTFTGSTPVGKQLASLAGLHMKRATMELGGHAPVIVAEDADVALAVKAAGGAKFRNAGQVCISPTRFLVHNSIRDEFTRALVKHAEGLKVGNGLEEGTTLGALANPRRLTAMASVIDNARKVGASIETGGERIGSEGNFFAPTVIANVPLDADVFNNEPFGPVAAIRGFDKLEEAIAEANRLPFGLAGYAFTRSFANVHLLTQRLEVGMLWINQPATGWPEMPFGGVKDSGYGSEGGPEALEPYLVTKSVTVMAV
B5: AbKGSADH (Azospirillum brasilense) (protein)
chain: ANVTYTDTQLLIDGEWVDAASGKTIDVVNPATGKPIGRVAHAGIADLDRALAAAQSGFEAWRKVPAHERAATMRKAAALVRERADAIAQLMTQEQGKPLTEARVEVLSAADIIEWFADEGRRVYGRIVPPRNLGAQQTVVKEPVGPVAAFTPWNFPVNQVVRKLSAALATGCSFLVKAPEETPASPAALLRAFVDAGVPAGVIGLVYGDPAEISSYLIPHPVIRKVTFTGSTPVGKQLASLAGLHMKRATMELGGHAPVIVAEDADVALAVKAAGGAKFRNAGQVCISPTRFLVHNSIRDEFTRALVKHAEGLKVGNGLEEGTTLGALANPRRLTAMASVIDNARKVGASIETGGERIGSEGNFFAPTVIANVPLDADVFNNEPFGPVAAIRGFDKLEEAIAEANRLPFGLAGYAFTRSFANVHLLTQRLEVGMLWINQPATPWPEMPFGGVKDSGYGSEGGPEALEPYLVTKSVTVMAV
B6: AbKGSADH (Azospirillum brasilense; S109G) (protein)
chain: ANVTYTDTQLLIDGEWVDAASGKTIDVVNPATGKPIGRVAHAGIADLDRALAAAQSGFEAWRKVPAHERAATMRKAAALVRERADAIAQLMTQEQGKPLTEARVEVLGAADIIEWFADEGRRVYGRIVPPRNLGAQQTVVKEPVGPVAAFTPWNFPVNQVVRKLSAALATGCSFLVKAPEETPASPAALLRAFVDAGVPAGVIGLVYGDPAEISSYLIPHPVIRKVTFTGSTPVGKQLASLAGLHMKRATMELGGHAPVIVAEDADVALAVKAAGGAKFRNAGQVCISPTRFLVHNSIRDEFTRALVKHAEGLKVGNGLEEGTTLGALANPRRLTAMASVIDNARKVGASIETGGERIGSEGNFFAPTVIANVPLDADVFNNEPFGPVAAIRGFDKLEEAIAEANRLPFGLAGYAFTRSFANVHLLTQRLEVGMLWINQPATPWPEMPFGGVKDSGYGSEGGPEALEPYLVTKSVTVMAV
B7: AbKGSADH (Azospirillum brasilense; R281F) (protein)
chain: ANVTYTDTQLLIDGEWVDAASGKTIDVVNPATGKPIGRVAHAGIADLDRALAAAQSGFEAWRKVPAHERAATMRKAAALVRERADAIAQLMTQEQGKPLTEARVEVLSAADIIEWFADEGRRVYGRIVPPRNLGAQQTVVKEPVGPVAAFTPWNFPVNQVVRKLSAALATGCSFLVKAPEETPASPAALLRAFVDAGVPAGVIGLVYGDPAEISSYLIPHPVIRKVTFTGSTPVGKQLASLAGLHMKRATMELGGHAPVIVAEDADVALAVKAAGGAKFFNAGQVCISPTRFLVHNSIRDEFTRALVKHAEGLKVGNGLEEGTTLGALANPRRLTAMASVIDNARKVGASIETGGERIGSEGNFFAPTVIANVPLDADVFNNEPFGPVAAIRGFDKLEEAIAEANRLPFGLAGYAFTRSFANVHLLTQRLEVGMLWINQPATPWPEMPFGGVKDSGYGSEGGPEALEPYLVTKSVTVMAV
B8: AbKGSADH (Azospirillum brasilense; P444S) (protein)
chain: ANVTYTDTQLLIDGEWVDAASGKTIDVVNPATGKPIGRVAHAGIADLDRALAAAQSGFEAWRKVPAHERAATMRKAAALVRERADAIAQLMTQEQGKPLTEARVEVLSAADIIEWFADEGRRVYGRIVPPRNLGAQQTVVKEPVGPVAAFTPWNFPVNQVVRKLSAALATGCSFLVKAPEETPASPAALLRAFVDAGVPAGVIGLVYGDPAEISSYLIPHPVIRKVTFTGSTPVGKQLASLAGLHMKRATMELGGHAPVIVAEDADVALAVKAAGGAKFRNAGQVCISPTRFLVHNSIRDEFTRALVKHAEGLKVGNGLEEGTTLGALANPRRLTAMASVIDNARKVGASIETGGERIGSEGNFFAPTVIANVPLDADVFNNEPFGPVAAIRGFDKLEEAIAEANRLPFGLAGYAFTRSFANVHLLTQRLEVGMLWINQPATSWPEMPFGGVKDSGYGSEGGPEALEPYLVTKSVTVMAV
B9: AbKGSADH (Azospirillum brasilense; S109L) (protein)
chain: ANVTYTDTQLLIDGEWVDAASGKTIDVVNPATGKPIGRVAHAGIADLDRALAAAQSGFEAWRKVPAHERAATMRKAAALVRERADAIAQLMTQEQGKPLTEARVEVLLAADIIEWFADEGRRVYGRIVPPRNLGAQQTVVKEPVGPVAAFTPWNFPVNQVVRKLSAALATGCSFLVKAPEETPASPAALLRAFVDAGVPAGVIGLVYGDPAEISSYLIPHPVIRKVTFTGSTPVGKQLASLAGLHMKRATMELGGHAPVIVAEDADVALAVKAAGGAKFRNAGQVCISPTRFLVHNSIRDEFTRALVKHAEGLKVGNGLEEGTTLGALANPRRLTAMASVIDNARKVGASIETGGERIGSEGNFFAPTVIANVPLDADVFNNEPFGPVAAIRGFDKLEEAIAEANRLPFGLAGYAFTRSFANVHLLTQRLEVGMLWINQPATPWPEMPFGGVKDSGYGSEGGPEALEPYLVTKSVTVMAV
B10: AbKGSADH (Azospirillum brasilense; I288T) (protein)
chain: ANVTYTDTQLLIDGEWVDAASGKTIDVVNPATGKPIGRVAHAGIADLDRALAAAQSGFEAWRKVPAHERAATMRKAAALVRERADAIAQLMTQEQGKPLTEARVEVLSAADIIEWFADEGRRVYGRIVPPRNLGAQQTVVKEPVGPVAAFTPWNFPVNQVVRKLSAALATGCSFLVKAPEETPASPAALLRAFVDAGVPAGVIGLVYGDPAEISSYLIPHPVIRKVTFTGSTPVGKQLASLAGLHMKRATMELGGHAPVIVAEDADVALAVKAAGGAKFRNAGQVCTSPTRFLVHNSIRDEFTRALVKHAEGLKVGNGLEEGTTLGALANPRRLTAMASVIDNARKVGASIETGGERIGSEGNFFAPTVIANVPLDADVFNNEPFGPVAAIRGFDKLEEAIAEANRLPFGLAGYAFTRSFANVHLLTQRLEVGMLWINQPATPWPEMPFGGVKDSGYGSEGGPEALEPYLVTKSVTVMAV
B11: AbKGSADH (Azospirillum brasilense; R281Y) (protein)
chain: ANVTYTDTQLLIDGEWVDAASGKTIDVVNPATGKPIGRVAHAGIADLDRALAAAQSGFEAWRKVPAHERAATMRKAAALVRERADAIAQLMTQEQGKPLTEARVEVLSAADIIEWFADEGRRVYGRIVPPRNLGAQQTVVKEPVGPVAAFTPWNFPVNQVVRKLSAALATGCSFLVKAPEETPASPAALLRAFVDAGVPAGVIGLVYGDPAEISSYLIPHPVIRKVTFTGSTPVGKQLASLAGLHMKRATMELGGHAPVIVAEDADVALAVKAAGGAKFYNAGQVCISPTRFLVHNSIRDEFTRALVKHAEGLKVGNGLEEGTTLGALANPRRLTAMASVIDNARKVGASIETGGERIGSEGNFFAPTVIANVPLDADVFNNEPFGPVAAIRGFDKLEEAIAEANRLPFGLAGYAFTRSFANVHLLTQRLEVGMLWINQPATPWPEMPFGGVKDSGYGSEGGPEALEPYLVTKSVTVMAV

substrate: O=CCCO; assay: purified protein; type: biochemical, Azospirillum brasilense; settings: 500 μM NAD, 100 mM Tris-HCl pH 8.0, 25 °C, 50 nM enzyme, 0.5-10 mM 3HPA

For B1, which Km is on record?
Its Km is 4.714 ± 0.547 mM.

What about the kcat of the same protein?
The kcat was 19.5 ± 1.04 s⁻¹.

And the kcat/Km?
Its kcat/Km is 4140 M⁻¹ s⁻¹.

How did the Km turn out when B2 was run?
The Km was 5.764 ± 1.462 mM.

And the kcat?
The kcat was 31.5 ± 3.94 s⁻¹.

And the kcat/Km?
The kcat/Km was 5470 M⁻¹ s⁻¹.

With B3 as the protein, how does the Km read?
Its Km is 4.204 ± 1.184 mM.

What about the kcat of the same protein?
Its kcat is 18.8 ± 2.36 s⁻¹.

And the kcat/Km?
The kcat/Km was 4480 M⁻¹ s⁻¹.

For B4, which Km is on record?
Its Km is 3.512 ± 2.070 mM.

What about the kcat of the same protein?
Its kcat is 6.59 ± 1.58 s⁻¹.

What about the kcat/Km of the same protein?
The kcat/Km was 1880 M⁻¹ s⁻¹.

Which Km does the source give for B5 here?
Its Km is 4.581 ± 0.921 mM.

And the kcat?
The kcat was 21.5 ± 1.99 s⁻¹.

What about the kcat/Km of the same protein?
The kcat/Km was 4700 M⁻¹ s⁻¹.

Which results are given for B6?
Km: 1.646 ± 0.726 mM; kcat: 6 ± 0.877 s⁻¹; kcat/Km: 3640 M⁻¹ s⁻¹

Which results are given for B7?
Km: 3.808 ± 0.728 mM; kcat: 21.9 ± 1.8 s⁻¹; kcat/Km: 5760 M⁻¹ s⁻¹

How did the Km turn out when B8 was run?
The Km was 4.690 ± 2.996 mM.

And the kcat?
The kcat was 17.3 ± 5.1 s⁻¹.

And the kcat/Km?
Its kcat/Km is 3700 M⁻¹ s⁻¹.

For B9, which Km is on record?
Its Km is 4.156 ± 1.377 mM.

What about the kcat of the same protein?
The kcat was 17 ± 2.5 s⁻¹.

And the kcat/Km?
The kcat/Km was 4100 M⁻¹ s⁻¹.

For B10, which Km is on record?
The Km was 4.593 ± 2.814 mM.

What about the kcat of the same protein?
The kcat was 6.12 ± 1.69 s⁻¹.

And the kcat/Km?
Its kcat/Km is 1330 M⁻¹ s⁻¹.

How did the Km turn out when B11 was run?
The Km was 2.338 ± 0.372 mM.

What about the kcat of the same protein?
The kcat was 26.6 ± 1.56 s⁻¹.

What about the kcat/Km of the same protein?
The kcat/Km was 11400 M⁻¹ s⁻¹.
